Source: PMC8219041, “A transcriptional hub integrating gibberellin–brassinosteroid signals to promote seed germination in Arabidopsis”

T1: GST-BEE2 (Arabidopsis thaliana, UniProt Q93VJ4 1-304)
T1 sequence: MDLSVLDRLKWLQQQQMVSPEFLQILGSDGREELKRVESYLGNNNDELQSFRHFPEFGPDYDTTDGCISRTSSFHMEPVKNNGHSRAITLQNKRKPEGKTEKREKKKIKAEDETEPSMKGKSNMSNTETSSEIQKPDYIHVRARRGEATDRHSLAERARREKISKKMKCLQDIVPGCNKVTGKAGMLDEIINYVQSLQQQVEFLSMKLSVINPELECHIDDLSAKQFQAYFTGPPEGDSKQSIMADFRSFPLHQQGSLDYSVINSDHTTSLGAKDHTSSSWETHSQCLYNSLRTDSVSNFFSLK

T2: GST-HBI1 (Arabidopsis thaliana, UniProt Q9ZPW3 1-337)
T2 sequence: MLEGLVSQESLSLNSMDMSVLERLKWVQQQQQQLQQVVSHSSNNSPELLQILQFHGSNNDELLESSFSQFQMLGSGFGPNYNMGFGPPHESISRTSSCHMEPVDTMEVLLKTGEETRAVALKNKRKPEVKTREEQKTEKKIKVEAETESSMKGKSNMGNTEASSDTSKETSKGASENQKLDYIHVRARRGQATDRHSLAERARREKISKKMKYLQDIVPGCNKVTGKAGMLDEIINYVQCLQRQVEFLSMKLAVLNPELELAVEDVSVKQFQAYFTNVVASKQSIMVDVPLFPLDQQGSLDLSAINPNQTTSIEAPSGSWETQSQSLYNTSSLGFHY

B1: GASA6 promoter Probe 1 (dsDNA)
DNA 1: CAATTTTTAATCACAAATGCTATTTTATTGGACGACC
DNA 2: GGTCGTCCAATAAAATAGCATTTGTGATTAAAAATTG
B2: GASA6 promoter Probe 2 (dsDNA)
DNA 1: GTCTCCCATGTGAGTGCACATGGAGTTATG
DNA 2: CATAACTCCATGTGCACTCACATGGGAGAC

Assays:
GST-BEE2 = target: T1, GST-BEE2; experiment: EMSA; 1000x cold probe eliminated the shift; 10 mM Tris pH 7.5, 50 mM KCl, 5 mM MgCl2, 1 mM DTT, 2.5% glycerol, 0.5% NP-40, 50 ng poly(dI-dC), 25 fmol probe in 20 ul, room temperature, 45 min; 6% native PAGE; conditions: protein: recombinant; tags: GST (N-term, pGEX4T1); chain copies: 2; label: 5' biotin; blunt
GST-HBI1 = target: T2, GST-HBI1; experiment: as above; conditions: protein: recombinant; tags: GST (N-term, pGEX4T1); chain copies: 2; label: 5' biotin; blunt

Binder	binding result (GST-BEE2)	binding result (GST-HBI1)
B1	binds	binds
B2	binds	binds
